In patent US11485792B2, “Antibodies, uses thereof and conjugates thereof” (Polytherics Limited, priority 2016, dated 2022):

Assays:
[1] = Fluorescence-based thermal-shift assay (Sypro Orange); assay type: physicochemical
Experimental: Antibody was diluted to 1.5 mg/mL with DPBS, pH 7.1-7.5, and the concentration determined by measuring OD at 280 nm using a Nanodrop instrument. SEC analysis was carried out prior to thermal-shift analysis to confirm that over 99% of each antibody was present in their native form.
An RT-PCR instrument (StepOnePlus, Applied Biosystems) was set-up for a fluorescence-based thermal-shift assay using Sypro Orange dye as a fluorescent reporter. The assay was set-up in a PCR 96 well plate with five replicates per antibody sample and a final reaction volume of 20 μL per well. 13.5 μL of DPBS was pipetted in each well followed by the addition of 4 μL of antibody. […] Fluorescence data was collected throughout the temperature ramp, using an excitation filter at 470 nm and emission filter at 610 nm. […] The melting curves generated by the instrument software during the thermal unfolding of the antibodies result from the plotting of fluorescence vs. temperature. The melting temperature (Tm), is the temperature at which half of the antibody molecules are unfolded, (indicated by a 50% increase in fluorescence), and can be determined from the inflection point of the melting curve. The Tms are conventionally calculated by plotting a derivative plot. This is the change in fluorescence divided by the […] (the change rate) plotted on the Y-axis versus temperature on the X-axis. […]

[2] = Heat stress test with SEC analysis of aggregation; assay type: physicochemical
Experimental: Antibody samples (0.5 mg/mL in PBS) were incubated at 75° C. for 30 min followed by incubation in an ice-bath for 5 min prior to being analysed for their extent of aggregation. Analysis of antibody solutions was carried out by Size Exclusion Chromatography (SEC) and by turbidity measurements.
SEC was performed using a TOSOH Bioscience TSK gel Super SW 3000 column. UV absorbance at 280 nm was monitored during an isocratic elution with a 0.2 M Potassium phosphate buffer, pH 6.8 (0.2 M potassium chloride and 15% isopropanol). The elution times and number of peaks indicate whether the sample contains aggregated, degraded or native antibody. The % area under the curve (Abs280) was used to determine the quantity of each species present in the SEC analysis.

PC-3 cells = test: In vitro cell viability assay (CellTiter Glo), PC-3 (PSMA-negative control); assay type: cell-based; settings: Example 16; PSMA-negative PC-3 (negative control), 96 h
Excerpt: Loss of tumour cell viability following treatment with cytotoxic drugs or ADCs in vitro can be measured by growing cell lines in the presence of increasing concentrations of drugs or ADCs and quantifying the loss of proliferation or metabolic activity using CellTiter Glo® Luminescence reagent (Promega Corp. Technical Bulletin TB288; Lewis Phillips G. D, Cancer Res 2008; 68:9280-9290). The protocol describes cell seeding, drug treatment and determination of the cell viability in reference to untreated cells based on ATP synthesis, which is directly related to the number of cells present in the well.
PSMA-positive LNCaP (clone FGC) and C4-2 cells, as well as PSMA-negative PC-3 cells were detached with TrypLE and resuspended in complete medium. Cells were counted using disposable Neubauer counting chambers and cell density adjusted to 10×10^4 cells/mL for LNCaP, 2×10^4 cells/mL for C4-2 and 1×10^4 cells/mL for PC-3 respectively. […]
The cell viability assay was carried out using the Cell-Titer Glo® Luminescence reagent, as described by the manufacturer's instructions, (Promega Corp. Technical Bulletin TB288; Lewis Phillips G. D, Cancer Res 2008; 68:9280-9290). Luminescence was recorded using a plate reader (e.g. Molecular Devices Spectramax M3 plate reader), and data subsequently analysed using a four parameter non-linear regression model. […]

[3] = post stress test: 0.5 mg/mL in PBS, 75° C. for 30 min, then ice-bath 5 min, SEC

B1: AB-P2: prior art anti-PSMA antibody, heavy and light chain SEQ ID No 37 and 38 (antibody, V domains shown)
VH: MELGLRWVLLVALLRGVQCQVQLVESGGGVVQPGRSLRLSCAASGFTFSNYVMHWVRQAPGKGLEWVAIIWYDGSNKYYADSVKGRFTISRDNSKNTLYLQMNSLRAEDTAVYYCAGGYNWNYEYHYYGMDVWGQGTTVTVSS
VL: MRVPAQLLGLLLLCFPGARCDIQMTQSPSSLSASVGDRVTITCRASQGITNYLAWFQQKPGKAPKSLIYAASSLQSGVPSKFSGSGSGTDFSLTISSLQPEDFATYYCQQYNSYPITFGQGTRLEIK
- Tm1 (° C.) ([1]; first transition peak: unfolding of the CH2 and Fab domains): 68.9 ± 0.1 °C
- Tm2 (° C.) ([1]; second transition peak: unfolding of the CH3 domain): 75.2 ± 0.1 °C
- Ab in aggregated form (%) [2, 3]: 100%
- Ab in native conformation (%) [2, 3]: 0%
- stability in heat stress SEC analysis (in words) ([2]; propensity to aggregate upon heating and cooling): less stable than AB-03

B2: ADC 34 (conjugate)
heavy: QVQLVESGGGVVQPGRSLRLSCAASGFTFSNYVMHWVRQAPGKGLEWVAIIWYDGSNKYYADSVKGRFTISRDNSKNTLYLQMNSLRAEDTAVYYCAGGYNWNYEYHYYGMDVWGQGTTVTVSS
light: DIQMTQSPSSLSASVGDRVTITCRASQGITNYLAWFQQKPGKAPKSLIYAASSLQSGVPSKFSGSGSGTDFSLTISSLQPEDFATYYCQQYNSYPITFGQGTRLEIK
modifications: non-natural residues
- IC50 (PC-3 cells): > 50 nM
